Columns and labels:
HeLa Kyoto [1] = experiment: solubility in G1/S (NP-40 vs SDS abundance) (log2 ratio); higher = more soluble; conditions: cell cycle stage: G1/S
HeLa Kyoto [2] = experiment: melting temperature (median over replicates), in situ; higher = more thermally stable
HeLa Kyoto [3] = experiment: solubility change mitosis vs G1/S (difference of NP-40 vs SDS log2 ratios) (log2 ratio difference); higher = more soluble in mitosis
HeLa Kyoto [4] = experiment: thermal stability score vs G1/S (z-score of summed log2 fold changes over temperatures); higher = more thermally stable than in G1/S
[5] = cell cycle stage: early G1 (4.5 h after nocodazole release)
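For melting temperature (median over replicates), in situ in this document: HeLa Kyoto cells synchronized by double thymidine or nocodazole block, proteins quantified by TMT10plex mass spectrometry, three independent biological replicates.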
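For solubility change mitosis vs G1/S (difference of NP-40 vs SDS log2 ratios) in this document: synchronized HeLa Kyoto cells (double thymidine block for G1/S, nocodazole release for mitosis), protein amounts in NP-40 versus SDS lysates quantified by mass spectrometry, three biological replicates.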
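For solubility in G1/S (NP-40 vs SDS abundance) in this document: HeLa Kyoto cells arrested at G1/S by double thymidine block, proteins quantified by TMT10plex mass spectrometry in mild NP-40 versus SDS extracts, three biological replicates.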
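For thermal stability score vs G1/S (z-score of summed log2 fold changes over temperatures) in this document: synchronized HeLa Kyoto cells, proteins quantified by TMT10plex mass spectrometry, three biological replicates, mitosis taken 0.5 h after nocodazole release, G1/S directly after double thymidine block.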

Sequence | solubility in G1/S (log2) (HeLa Kyoto [1]) | melting temperature (HeLa Kyoto [2]; cell cycle stage: G1/S) | melting temperature (HeLa Kyoto [2]; cell cycle stage: mitosis) | solubility change mitosis (log2) (HeLa Kyoto [3]) | thermal stability score (HeLa Kyoto [4]; [5]) | thermal stability score (HeLa Kyoto [4]; cell cycle stage: mitosis)
MANDSPAKSLVDIDLSSLRDPAGIFELVEVVGNGTYGQVYKGRHVKTGQLAAIKVMDVTEDEEEEIKLEINMLKKYSHHRNIATYYGAFIKKSPPGHDDQLWLVMEFCGAGSITDLVKNTKGNTLKEDWIAYISREILRGLAHLHIHHVIHRDIKGQNVLLTENAEVKLVDFGVSAQLDRTVGRRNTFIGTPYWMAPEVIACDENPDATYDYRSDLWSCGITAIEMAEGAPPLCDMHPMRALFLIPRNPPPRLKSKKWSKKFFSFIEGCLVKNYMQRPSTEQLLKHPFIRDQPNERQVRIQLKDHIDRTRKKRGEKDETEYEYSGSEEEEEEVPEQEGEPSSIVNVPGESTLRRDFLRLQQENKERSEALRRQQLLQEQQLREQEEYKRQLLAERQKRIEQQKEQRRRLEEQQRREREARRQQEREQRRREQEEKRRLEELERRRKEEEERRRAEEEKRRVEREQEYIRRQLEEEQRHLEVLQQQLLQEQAMLLECRWREMEEHRQAERLQRQLQQEQAYLLSLQHDHRRPHPQHSQQPPPPQQERSKPSFHAPEPKAHYEPADRAREVEDRFRKTNHSSPEAQSKQTGRVLEPPVPSRSESFSNGNSESVHPALQRPAEPQVPVRTTSRSPVLSRRDSPLQGSGQQNSQAGQRNSTSIEPRLLWERVEKLVPRPGSGSSSGSSNSGSQPGSHPGSQSGSGERFRVRSSSKSEGSPSQRLENAVKKPEDKKEVFRPLKPADLTALAKELRAVEDVRPPHKVTDYSSSSEESGTTDEEDDDVEQEGADESTSGPEDTRAASSLNLSNGETESVKTMIVHDDVESEPAMTPSKEGTLIVRQTQSASSTLQKHKSSSSFTPFIDPRLLQISPSSGTTVTSVVGFSCDGMRPEAIRQDPTRKGSVVNVNPTNTRPQSDTPEIRKYKKRFNSEILCAALWGVNLLVGTESGLMLLDRSGQGKVYPLINRRRFQQMDVLEGLNVLVTISGKKDKLRVYYLSWLRNKILHNDPEVEKKQGWTTVGDLEGCVHYKVVKYERIKFLVIALKSSVEVYAWAPKPYHKFMAFKSFGELVHKPLLVDLTVEEGQRLKVIYGSCAGFHAVDVDSGSVYDIYLPTHIQCSIKPHAIIILPNTDGMELLVCYEDEGVYVNTYGRITKDVVLQWGEMPTSVAYIRSNQTMGWGEKAIEIRSVETGHLDGVFMHKRAQRLKFLCERNDKVFFASVRSGGSSQVYFMTLGRTSLLSW [MAP4K4] | -0.155 | 51.7 °C | 51.3 °C | -0.0676 | 0.471 | 0.408
MSWAARPPFLPQRHAAGQCGPVGVRKEMHCGVASRWRRRRPWLDPAAAAAAAVAGGEQQTPEPEPGEAGRDGMGDSGRDSRSPDSSSPNPLPQGVPPPSPPGPPLPPSTAPSLGGSGAPPPPPMPPPPLGSPFPVISSSMGSPGLPPPAPPGFSGPVSSPQINSTVSLPGGGSGPPEDVKPPVLGVRGLHCPPPPGGPGAGKRLCAICGDRSSGKHYGVYSCEGCKGFFKRTIRKDLTYSCRDNKDCTVDKRQRNRCQYCRYQKCLATGMKREAVQEERQRGKDKDGDGEGAGGAPEEMPVDRILEAELAVEQKSDQGVEGPGGTGGSGSSPNDPVTNICQAADKQLFTLVEWAKRIPHFSSLPLDDQVILLRAGWNELLIASFSHRSIDVRDGILLATGLHVHRNSAHSAGVGAIFDRVLTELVSKMRDMRMDKTELGCLRAIILFNPDAKGLSNPSEVEVLREKVYASLETYCKQKYPEQQGRFAKLLLRLPALRSIGLKCLEHLFFFKLIGDTPIDTFLMEMLEAPHQLA [RXRB] | 0.264 | 47.6 °C | 49.1 °C | -0.14 | 0.348 | 0.163
MEEDTDYRIRFSSLCFFNDHVGFHGTIKSSPSDFIVIEIDEQGQLVNKTIDEPIFKISEIQLEPNNFPKKPKLDLQNLSLEDGRNQEVHTLIKYTDGDQNHQSGSEKEDTIVDGTSKCEEKADVLSSFLDEKTHELLNNFACDVREKWLSKTELIGLPPEFSIGRILDKNQRASLHSAIRQKFPFLVTVGKNSEIVVKPNLEYKELCHLVSEEEAFDFFKYLDAKKENSKFTFKPDTNKDHRKAVHHFVNKKFGNLVETKSFSKMNCSAGNPNVVVTVRFREKAHKRGKRPLSECQEGKVIYTAFTLRKENLEMFEAIGFLAIKLGVIPSDFSYAGLKDKKAITYQAMVVRKVTPERLKNIEKEIEKKRMNVFNIRSVDDSLRLGQLKGNHFDIVIRNLKKQINDSANLRERIMEAIENVKKKGFVNYYGPQRFGKGRKVHTDQIGLALLKNEMMKAIKLFLTPEDLDDPVNRAKKYFLQTEDAKGTLSLMPEFKVRERALLEALHRFGMTEEGCIQAWFSLPHSMRIFYVHAYTSKIWNEAVSYRLETYGARVVQGDLVCLDEDIDDENFPNSKIHLVTEEEGSANMYAIHQVVLPVLGYNIQYPKNKVGQWYHDILSRDGLQTCRFKVPTLKLNIPGCYRQILKHPCNLSYQLMEDHDIDVKTKGSHIDETALSLLISFDLDASCYATVCLKEIMKHDV [PUS7L] | -0.0836 | 51 °C | 51.9 °C | -0.137 | 0.23 | 0.98
